{"source": "patent US20250155429A1", "key": {"[1]": {"biological_target": "CD8", "experiment": "same staining; plot CD8 against CD3, all events CD3-positive: upper left 0.00, lower left 0.00, lower right 71.27"}, "[2]": {"biological_target": "CD8", "experiment": "same staining; plot CD8 against CD4: upper right 0.30, lower left 11.12"}, "[3]": {"biological_target": "CD45", "experiment": "flow cytometry of PBMCs stained at once with mouse IgG1 anti-CD45 (linker-488, FITC), mouse IgG2a anti-CD3 (linker-555, PE), mouse IgG2b anti-CD4 (linker-647, APC); left plot: Q5 0, Q8 0.21"}, "[4]": {"biological_target": "CD45", "experiment": "flow cytometry of PBMCs, co-staining in the BSA series, 20% BSA; left quadrants 0.00 and 0.00"}, "[5]": {"biological_target": "CD45", "experiment": "flow cytometry of PBMCs, co-staining in the BSA series, 10% BSA; left quadrants 0.00 and 0.01"}, "[6]": {"biological_target": "CD45", "experiment": "flow cytometry of PBMCs, co-staining in the BSA series, 0% BSA; left quadrants 0.00 and 0.01"}, "[7]": {"biological_target": "CD45", "experiment": "flow cytometry of PBMCs stained with four mouse IgG1 primaries, each pre-labelled with an anti-mouse IgG1 linker; plot CD3 against CD45: upper left 0.03, lower left 0.14"}, "[8]": {"biological_target": "CD3 (Homo sapiens (Human)) (UniProt P07766)", "experiment": "flow cytometry of PBMCs, FSC-H against APC-A, No Quencher; Q4 100.0"}}}
{"substance": "CD8 (65144-1-Ig) (antibody)", "values": [{"measurement": "% of cells, upper right quadrant (CD3+/CD8+)", "setting": "[1]", "value": 28.7, "unit": "%"}, {"measurement": "% of cells, upper left quadrant (CD8-positive, CD4-negative)", "setting": "[2]", "value": 28.4, "unit": "%"}]}
{"substance": "CD45 (65109-1-Ig) (antibody)", "values": [{"measurement": "Q6 (% of cells, FITC-positive and PE-positive)", "setting": "[3]", "value": 55.4, "unit": "%"}, {"measurement": "Q7 (% of cells, FITC-positive and PE-negative)", "setting": "[3]", "value": 44.4, "unit": "%"}, {"measurement": "% of cells, lower right quadrant (CD45-positive, CD3-negative)", "setting": "[4]", "value": 45.7, "unit": "%"}, {"measurement": "% of cells, upper right quadrant (CD45-positive, CD3-positive)", "setting": "[4]", "value": 54.3, "unit": "%"}, {"measurement": "% of cells, lower right quadrant (CD45-positive, CD3-negative)", "setting": "[5]", "value": 46.1, "unit": "%"}, {"measurement": "% of cells, upper right quadrant (CD45-positive, CD3-positive)", "setting": "[5]", "value": 53.9, "unit": "%"}, {"measurement": "% of cells, lower right quadrant (CD45-positive, CD3-negative)", "setting": "[6]", "value": 47, "unit": "%"}, {"measurement": "% of cells, upper right quadrant (CD45-positive, CD3-positive)", "setting": "[6]", "value": 52.9, "unit": "%"}, {"measurement": "% of cells, lower right quadrant (CD45-positive, CD3-negative)", "setting": "[7]", "value": 28.5, "unit": "%"}, {"measurement": "% of cells, upper right quadrant (CD3+/CD45+)", "setting": "[7]", "value": 71.4, "unit": "%"}]}
{"substance": "mouse IgG1 isotype control (antibody)", "values": [{"measurement": "Q3 (% of cells, APC-positive)", "setting": "[8]", "value": 0.025, "unit": "%"}]}
